According to article PMC9221443, “Peptidomimetics Based on C-Terminus of Blm10 Stimulate Human 20S Proteasome Activity and Promote Degradation of Proteins” (Biomolecules, 2022):
pEC50: −log10 of the molar value.

Legend:
Experiment in all cases: MST; NT-647-labelled protein kept constant (250 nM native and oxidized α-synuclein, 125 nM native enolase, 25 nM oxidized enolase), unlabelled h20S titrated in 16 dilutions from 1965 to 0.06 nM; 60 min (enolase) or 30 min (α-synuclein) at 22 °C; 20 mM Tris-HCl pH 7.2, 10% glycerol, 0.5 mM DTT, 0.5 mM NaN3, 0.125 mM EDTA, 100 mM NaCl; Hill fit, three independent experiments
[1] = target: oxidized human enolase 2 (human) (UniProt P09104)
oxidized α-synuclein = oxidized α-synuclein (UniProt P37840)
α-synuclein = α-synuclein (UniProt P37840)

pEC50 [1]: 7.06
pEC50 (oxidized α-synuclein): 7.17
pEC50 (α-synuclein): 7.49
Substance: human 20S proteasome (from UniProt P25786 4-241; P28066 8-241; P28072 35-239; Q99436 44-277; P28074 60-263) (complex)
